B1: MBP-Ku70-β-barrel^His (aa266-439) (domain or fragment, UniProt P12956 266-439, looked up)
chain: DIVISVGIYNLVQKALKPPPIKLYRETNEPVKTKTRTFNTSTGGLLLPSDTKRSQIYGSRQIILEKEETEELKRFDDPGLMLMGFKPLVLLKKHHYLRPSLFVYPEESLVIGSSTLFSALLIKCLEKEVAALCRYTPRRNIPPYFVALVPQEEELDDQKIQVTPPGFQLVFLPF
notes: also called MBP-β-barrel^His; Ku70 β-barrel domain; source: E. coli BL21/DE3 pLysS, purified
B2: glutathione S-transferase (GST)-tagged HBoV1 NP1 (GST-NP1) (natural protein)
chain: MSSGNMKDKHRSYKRKGSPERGERKRHWQTTHHRSRSRSPIRHSGERGSGSYHQEHPISHLSSCTASKTSDQVMKTRESTSGKKDNRTNPYTVFSQHRASNPEAPGWCGFYWHSTRIARDGTNSIFNEMKQQFQQLQIDNKIGWDNTRELLFNQKKTLDQKYRNMFWHFRNNSDCERCNYWDDVYRRHLANVSSQTEADEITDEEMLSAAESMEADASN
notes: also called pGST-NP1; source: E. coli BL21/DE3 pLysS, purified

How the values were obtained:
Test in all cases: BLI; BLItz; His-tagged protein at different concentrations mounted on Ni-NTA biosensors, dipped into 4 μM GST-NP1 or control GST^Flag; Kinetic buffer 50 mM Tris-HCl pH 7.4, 150 mM NaCl
Details in all cases: both partners purified
[1] = molecular target: B2
[2] = molecular target: T1, hexahistidine (His)-tagged Ku70 (Ku70^His) (UniProt P12956 1-609)
T1 construct: also called full length Ku70; Ku70 monomer; source: E. coli BL21/DE3 pLysS, purified
T1 sequence (P12956 whole entry): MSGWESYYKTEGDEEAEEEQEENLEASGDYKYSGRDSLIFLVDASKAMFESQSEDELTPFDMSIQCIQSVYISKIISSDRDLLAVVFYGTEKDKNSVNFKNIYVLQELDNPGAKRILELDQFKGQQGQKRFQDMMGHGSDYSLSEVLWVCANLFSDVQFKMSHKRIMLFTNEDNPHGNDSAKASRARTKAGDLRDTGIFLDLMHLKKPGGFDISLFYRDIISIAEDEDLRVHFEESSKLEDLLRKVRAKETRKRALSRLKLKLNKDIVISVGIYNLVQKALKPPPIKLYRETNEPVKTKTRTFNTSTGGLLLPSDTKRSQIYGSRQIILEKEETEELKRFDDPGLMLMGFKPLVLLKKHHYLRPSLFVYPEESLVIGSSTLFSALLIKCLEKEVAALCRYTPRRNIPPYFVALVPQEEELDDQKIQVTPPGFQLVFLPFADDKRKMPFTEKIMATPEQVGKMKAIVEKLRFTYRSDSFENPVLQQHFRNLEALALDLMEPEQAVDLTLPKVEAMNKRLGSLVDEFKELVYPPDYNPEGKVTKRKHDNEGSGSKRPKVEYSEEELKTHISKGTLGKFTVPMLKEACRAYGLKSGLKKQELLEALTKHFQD

RPA70^His = molecular target: T2, RPA70^His (UniProt P27694 1-616)
T2 construct: source: E. coli BL21/DE3 pLysS, purified
T2 sequence (P27694 whole entry): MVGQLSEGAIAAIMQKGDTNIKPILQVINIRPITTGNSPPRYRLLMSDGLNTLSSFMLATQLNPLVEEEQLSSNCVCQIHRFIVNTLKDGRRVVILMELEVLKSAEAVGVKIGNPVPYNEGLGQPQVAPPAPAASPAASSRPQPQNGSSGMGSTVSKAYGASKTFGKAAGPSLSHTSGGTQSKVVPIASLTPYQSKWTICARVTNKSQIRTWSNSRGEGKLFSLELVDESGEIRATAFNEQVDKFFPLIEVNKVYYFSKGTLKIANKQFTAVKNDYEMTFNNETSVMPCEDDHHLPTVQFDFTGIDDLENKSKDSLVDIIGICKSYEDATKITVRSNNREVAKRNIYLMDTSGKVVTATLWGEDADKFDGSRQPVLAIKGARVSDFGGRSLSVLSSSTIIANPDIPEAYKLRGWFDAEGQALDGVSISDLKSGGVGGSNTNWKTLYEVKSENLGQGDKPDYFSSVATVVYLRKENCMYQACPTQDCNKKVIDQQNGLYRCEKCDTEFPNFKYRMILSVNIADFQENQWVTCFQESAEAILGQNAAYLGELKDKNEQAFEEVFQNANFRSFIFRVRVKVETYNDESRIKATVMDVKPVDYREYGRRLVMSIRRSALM

RPA70-AB^His (aa181-422) = molecular target: T3, RPA70-AB^His (aa181-422) (UniProt P27694 181-422)
T3 construct: also called middle AB domain; source: E. coli BL21/DE3 pLysS, purified
T3 sequence (P27694 181-422): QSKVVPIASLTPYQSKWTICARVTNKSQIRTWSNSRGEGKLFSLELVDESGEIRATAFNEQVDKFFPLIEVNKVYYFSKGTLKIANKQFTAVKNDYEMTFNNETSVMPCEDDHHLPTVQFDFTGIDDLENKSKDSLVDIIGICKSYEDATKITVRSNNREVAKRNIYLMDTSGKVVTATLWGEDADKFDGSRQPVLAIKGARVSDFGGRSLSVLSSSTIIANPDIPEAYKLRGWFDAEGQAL

Binder | Kd [1] [nM] | Kd [2] [nM] | Kd (RPA70^His) [nM] | Kd (RPA70-AB^His (aa181-422)) [nM]
B1 | 722 |  |  | 
B2 |  | 95 | 122 | 526
